Here are results for three molecules from PMC10072072 (mAbs, 2023).

For assay [1], the target named is Human CD3 epsilon-delta (εδ) heterodimer, Fc fusion (Homo sapiens, UniProt P07766;P04234). Description: BLI. For orientation: Biolayer interferometry detects binding as a change in optical thickness at a sensor tip.
For assay [2], the target named is Cyno CD3εδ heterodimer, Fc fusion (Macaca fascicularis, UniProt Q95LI5;Q95LI8). Description: BLI.
Assay [3] addresses CD3 on the surface of human Jurkat T cells (Homo sapiens (Jurkat), UniProt P07766;P04234). Description: flow cytometry on cells. A general note: Flow cytometry measures light scatter and fluorescence of single cells or particles in a stream.
The target of assay [4] is CD3 on the surface of cyno HSC-F T cells (Macaca fascicularis (HSC-F), UniProt Q95LI5;Q95LI8). Description: flow cytometry on cells.

Substitutions are numbered along the chain they refer to. Names may count otherwise.

Chain of CD3 on the surface of cyno HSC-F T cells (Q95LI5 22-198, one chain of several): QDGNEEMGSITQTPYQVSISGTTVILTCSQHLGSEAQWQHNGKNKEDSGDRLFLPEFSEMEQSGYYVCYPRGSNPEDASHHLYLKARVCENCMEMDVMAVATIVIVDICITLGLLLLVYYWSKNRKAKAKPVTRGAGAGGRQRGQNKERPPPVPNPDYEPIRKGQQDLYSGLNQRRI
Chain of Cyno CD3εδ heterodimer, Fc fusion (Q95LI5 22-117, stated change not applied, chain 1 of 2): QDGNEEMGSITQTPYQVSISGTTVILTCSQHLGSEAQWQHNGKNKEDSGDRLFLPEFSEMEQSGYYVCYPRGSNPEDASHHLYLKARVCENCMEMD
Chain of Cyno CD3εδ heterodimer, Fc fusion (Q95LI8 22-100, stated change not applied, chain 2 of 2): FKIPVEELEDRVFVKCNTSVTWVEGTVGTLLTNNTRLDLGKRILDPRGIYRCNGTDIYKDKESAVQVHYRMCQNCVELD
Chain of Human CD3 epsilon-delta (εδ) heterodimer, Fc fusion (P07766 23-126, stated change not applied, chain 1 of 2): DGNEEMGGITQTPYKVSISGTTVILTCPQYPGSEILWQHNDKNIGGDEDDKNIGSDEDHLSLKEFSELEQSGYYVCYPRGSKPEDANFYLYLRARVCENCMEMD
Chain of Human CD3 epsilon-delta (εδ) heterodimer, Fc fusion (P04234 22-100, stated change not applied, chain 2 of 2): as the sequence (Q95LI8 22-100, stated change not applied, chain 2 of 2) above, with V5I, K15N, V20I, T32S, N33D, N34I, A64T, N74S counted along it
Chain of CD3 on the surface of human Jurkat T cells (P07766 23-207, one chain of several): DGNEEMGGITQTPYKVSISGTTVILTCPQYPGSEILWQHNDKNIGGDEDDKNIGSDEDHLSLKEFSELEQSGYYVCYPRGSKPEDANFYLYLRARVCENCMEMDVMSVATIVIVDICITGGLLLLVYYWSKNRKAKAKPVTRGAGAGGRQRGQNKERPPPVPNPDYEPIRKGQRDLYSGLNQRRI

B1: ADI-26906 IgG1 variant L3-R94E (antibody, V domains shown)
VH: QVQLVQSGAEVKKPGASVKVSCKASGFNIKDYYMHWVRQAPGQRLEWMGWIDLENANTIYDAKFQGRVTITRDTSASTAYMELSSLRSEDTAVYYCARDAYGRYFYDVWGQGTLVTVSS
VL: DIVMTQSPDSLAVSLGERATINCKSSQSLLNARTGKNYLAWYQQKPGQPPKLLIYWASTRESGVPDRFSGSGSGTDFTLTISSLQAEDVAVYYCKQSYSERTFGGGTKVEIK
Take B1: the binding result in assay [1], in assay [2], in assay [3] and in assay [4] was “binds” throughout.

B2: ADI-26906 IgG1 (antibody, V domains shown)
VH: B1 VH
VL: B1 VL with E100R
In the case of B2, the binding result in assay [2] and in assay [4] was “binds” in each case.

B3: ADI-26906 Fab (from CHO-produced IgG, papain digest) (Fab, V domains shown)
VH: B1 VH
VL: B1 VL with E100R
As for B3, the binding result in assay [4] was “binds”.
